Reference: patent US20090017017A1 (SYMPHOGEN A S, published 2009)

T1: Rhesus D antigen (human, UniProt Q02161 2-417)
T1 construct: whole, on cells; Presented on RhD(+) erythrocytes; also called RhD; RhD antigen
T1 sequence (looked up): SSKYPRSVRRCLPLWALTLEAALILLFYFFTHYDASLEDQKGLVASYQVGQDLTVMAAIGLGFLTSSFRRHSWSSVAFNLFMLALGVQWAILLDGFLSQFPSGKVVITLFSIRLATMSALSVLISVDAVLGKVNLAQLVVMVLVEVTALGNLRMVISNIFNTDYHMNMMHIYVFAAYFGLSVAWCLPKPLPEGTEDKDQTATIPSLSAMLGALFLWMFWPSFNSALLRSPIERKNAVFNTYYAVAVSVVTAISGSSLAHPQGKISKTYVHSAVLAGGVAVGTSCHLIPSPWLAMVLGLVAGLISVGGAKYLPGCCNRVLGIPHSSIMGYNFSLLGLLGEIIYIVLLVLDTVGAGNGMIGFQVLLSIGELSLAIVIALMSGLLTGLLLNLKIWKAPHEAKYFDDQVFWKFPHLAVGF


Target: T1, Rhesus D antigen
Experiment: agglutination assay, Fab periplasmic extract on RhD(+)/RhD(-) RBC mix
Description: After each round of panning single colonies were picked for analysis of their binding properties to red blood cells in agglutination assays. Briefly, single colonies were inoculated into 2×YT/100 μg/mL carbenicillin/1% glucose and shaken overnight at 37° C. The next day, DeepWell plates were inoculated using 900 μl 2×YT/100 μg/mL carbenicillin/0.1% glucose and 10 μl overnight culture. The plates were shaken for two hours at 37° C., before Fab induction was performed with addition of 300 μl 2×YT/100 μg/mL carbenicillin/0.25 mM IPTG per well. The plate was shaken overnight at 30° C. The following day, the bacteria were pelleted by centrifugation (3200×g, 4° C., 10 minutes), and re-suspended in 100 μl of 0.8 M NaCl, 0.2×PBS, 8 mM EDTA, and incubated for 15 minutes on ice in order to perform a periplasmic extraction of the Fab fragments. The plate was transferred to −20° C. and finally the suspension was thawed and centrifugation was performed for 10 minutes at 4° C. and 3200×g. The periplasmic extract was used in ELISA assays for analysis of Fab content and in agglutination assays to evaluate the binding potential of the individual Fab fragments.
The agglutination assay was performed as follows: RhD(−) and RhD(+) RBC were mixed in a 1:1 ratio, and washed 3 times in PBS. After the final wash, the cell mix was re-suspended in 1% BSA in PBS at a density of 10% cells, 50 μl was added to each well of a 96-plate. Periplasmic extracts were added to the wells. As a positive control Rhesogamma P immunoglobulin (Aventis) was used according to the manufacturer's instructions. The plates were incubated for one hour at room temperature with gentle shaking. The cells were washed three times with PBS, before the secondary antibody was added (goat anti-human Fab/FITC conjugate, Sigma F5512) in a 1:100 dilution. The plates were left for agglutination for one hour at room temperature without shaking. Fab fragments positive in the agglutination assay was determined by visual inspection, and recorded by taking a picture. Quantization of the binding activity of the Fab fragments was performed by FACS analysis of the agglutination samples.

Binder	binding result
RhD206.160C06 (Fab, V domains shown, Tested as Fab in E. coli periplasmic extract (VH on human gamma 1 CH1, vector Em351)) VH: QVQLVESGGGVVQPGRSLRLSCAASGFTFSSYGMHWVRQAPGKGLEWVAIIWFDGSNKYYADSVKGRFTISRDNSKNTLYLQINSLRAEDTAVYYCAKEHGYYSSSWYRNYYYYAMDVWGQGTTVTVSS VL: DIQMTQSPSSLSASVGDRVTITCRASQSIRRYLNWYQKKPGKAPKLLIYAASSLQSGVPSRFSGSGSGTDFTLTISSLQPEDFATYYCQQSYRTQGLTFGGGTKVEIKR	binds
RhD208.179B11 (Fab, V domains shown, Tested as Fab in E. coli periplasmic extract (VH on human gamma 1 CH1, vector Em351)) VH: EVQLVESGGGVVQPGRSLRLSCAASGFTFRTSAMHWVRQAPGKGLEWVAVIWYDGSNKYYADSVKGRFTISRDNSKNTLYLQMNSLRAEDTAVYYCAREMVSYSSSWYRRYYYYNMDVWGKGTTVTVSS VL: QAVVTQEPSLTVSPGGTVTLTCASSTGSVTSGYYPNWFQQKPGQAPRPLISGTSNKLSWTPARFSGSLLGGKAALTVSGVQPEDEAVYYCLLYYGVPQPVVFGGGTKLTVLG	binds
RhD239.126F09 (Fab, V domains shown, Tested as Fab in E. coli periplasmic extract (VH on human gamma 1 CH1, vector Em351)) VH: QVQLVESGGGVVQPGTSLRLSCAASGFTFRTYGMHWVRQAPGKGLEWVAYIWYDGSNKYYADSVKGRFTISRDNSKSTLNLQMNSLRAEDTAVYYCAREIASRGYSRYLYYFDSWGQGTLVTVSS VL: DIQLTQSPSSLSASVGDRVTITCRASQSISSYLNWYQQKPGKAPKLLISAASSLQSGVPSRFSGSGSGTDFTLTISSLQREDYATYYCQQSYSTPPYTFGQGTKLEIKR	binds
RhD158.119B06 (Fab, V domains shown, Tested as Fab in E. coli periplasmic extract (VH on human gamma 1 CH1, vector Em351)) VH: EVQLVETGGGVVQPGRSLRLSCAASGFSFSNFGFHWIRQSPGKGLEWVAVIWYDGSNRFYADSVKGRFTISRDSSKNMLFLQMDSLRAEDTAVYYCAREISMKVVIRRHYVMDVWGHGTTVTVSS VL: DIQMTQSPSPLSASVGDRVSITCRASRGISNSLAWYQQKPGKVPKLLIYAASTLQSGVPSRFSGGGSGTDFTLTISSLQPEDVATYYCHTYNSAPFAFGPGTKVDIKR	binds
RhD240.125A09 (Fab, V domains shown, Tested as Fab in E. coli periplasmic extract (VH on human gamma 1 CH1, vector Em351)) VH: QLQLQESGPGLVKPSGTLSLTCAVSGGSMRSSNWWTWVRQPPGKGLEWIGEIHHGGSTNYNPSLQSRVTISVDKSKNRFSLKLSSVTAADTAVYHCARGRSYYDSSGHSFRGLVPFDIWGQGTMVTVSS VL: DIQMTQSPSTLSASVGDRVTITCRASQSISSWLAWYQQKPGKAPKLLVYKTSSLEGGVPSRFSGSGSGTEFSLTIFRLQSDDFATYYCQQYNSFPYTFGQGTKLEFTR	binds
RhD241.119B05 (Fab, V domains shown, Tested as Fab in E. coli periplasmic extract (VH on human gamma 1 CH1, vector Em351)) VH: QVQLQESGPGLVKPSETLSLICTVSGGSISSNYWSWIRQPPGKGLEWIGYIYYSGNTNYNPSLKSRVTISLDTSKNQFSLKLRSVTAADTAVYYCAREWRQYGSGIRGSRYYYGMDVWGQGTLVTVSS VL: EIVLTQSPVTLSLSPGERATLSCRASQSVSSGYLAWYQQKPGQAPRLLIYGTSIRATGIPDRFSGSGSGTDFTLTISRLEPEDFAVYYCQQYGSSPLYSFGQGTKVDIKR	binds
RhD242.181A03 (Fab, V domains shown, Tested as Fab in E. coli periplasmic extract (VH on human gamma 1 CH1, vector Em351)) VH: EVQLVESGGGVVQPGRSLRLSCAASGFTFSNHGMHWVRQAPGKGLEWVAVIWYDGSNKYYADSVKGRFTISRDNSKNTLYLQMNSLRAEDTAVYYCAREMASYSSSWYRRYYYYVMDVWGKGTTVTVSS VL: not shown	binds
RhD243.109A05 (Fab, V domains shown, Tested as Fab in E. coli periplasmic extract (VH on human gamma 1 CH1, vector Em351)) VH: QVQLVESGGGVVQPGRSLRLSCAASGFTFSTYGMHWVRQAPGKGLEWVAVIWYDGSQKYYVDSVKGRFTISRDNSKNTLYLQMNSLRAEDTAVYYCAREVAVRGVIRYYYGMDVWGQGTTVTVSS VL: DIQLTQSPSSLAASVGDRVIITCRSGQGIRNYLNWYQQKPGKAPKLLIYAASFLQSGVPSRFSGSGSGTDFTLTISSLQPEDFATYNCQQSYSDPWTFGQGTKVEIKR	binds
RhD244.158B10 (Fab, V domains shown, Tested as Fab in E. coli periplasmic extract (VH on human gamma 1 CH1, vector Em351)) VH: QVQLVESGGGVVQPGRSLRLSCAASGFSFSSYGMHWVRQAPGKGLEWVAIIWYDGSNKLYADSVKGRFTISRDNSRNTLYLQMSSVRAEDTAVYYCARDSVRGVSRWGTQKYYAMDVWGQGTTVTVSS VL: DIQMTQSPSSLSASVGDRVIITCRASQSVNRYLNWYQQKPGKAPKLLIYAASSLQGGVPSRFSGSGSGTDFTLTISSLQREDFATYYCQQSYRTRTFGQGTKVEIKR	binds
RhD245.164E06 (Fab, V domains shown, Tested as Fab in E. coli periplasmic extract (VH on human gamma 1 CH1, vector Em351)) VH: EVQLVQSGGGVVQPGRSPRLSCAASGFTFSSYGMHWVRQAPGKGLEWVAFIWYDGSNKYYADSVKGRFTISRDNSKNTLYLQMNSLRAEDTAVYYCARDLRNHVFWSGYSTSFDYWGQGTLVTVSS VL: DIQMTQSPSSLSASVGDGITITCRASQSVRSYLNWYQQKPGKAPELLIYAASRLQSGVPSRFSGSGSGTDFTLTISSLQPEDFATYYCQHSYSTPVTFGQGTKVEVKR	binds
RhD246.179B10 (Fab, V domains shown, Tested as Fab in E. coli periplasmic extract (VH on human gamma 1 CH1, vector Em351)) VH: EVQLVETGGGVVQPGRSLRLSCAASGFTFSSYGMHWVRQAPGKGLEWVAVIWYDGSNKYYADSVKGRFTISRDNSKNTLYLQMNSLRAEDTAVYYCAREMVSYSSSWYRRYYYYNMDVWGKGTTVTVSS VL: LSSELTQDPAVSVTLGQTVRITCQGDSLRHSYASWYQQKPGQAPILVIYGKNIRPSGIPDRFSGSTSGNTASLTITGAQAEDGGDYYCNSRDTSTDHYVFGDGTRVTVVG	binds
RhD292.109A02 (Fab, V domains shown, Tested as Fab in E. coli periplasmic extract (VH on human gamma 1 CH1, vector Em351)) VH: QVQLVETGGGVVQPGRSLRLSCAASGFTFSSYGMHWVRQAPGKGLEWVAVIWSDGSNKYYADSVKGRFTISRDNSRNTLYLQMNSLRAEDTAVFYCAREQGGYSSSWYRRYYYYYMDVWGQGTTVTVSS VL: DIQMTQSPSSLSASVGDRVTITCRASQSISSWLNWYQQKPGKAPNLLIFAASTLQSGVPSRFSGSGSGTDFTLTISSLQPEDFATYYCQQSYSSSVYTFGQGTKLEIKR	binds
RhD293.109A09 (Fab, V domains shown, Tested as Fab in E. coli periplasmic extract (VH on human gamma 1 CH1, vector Em351)) VH: EVQLVESGGGVVQPGRSLRLSCAASGFTFNTYGMHWVRQAPGKGLEWVAVIWYDGSNKYYADSVKGRFTISRDNSKNTLYLQMNSLRAEDTAVYYCAREVAVRGVIRYYYAMDVWGQGTTVTVSS VL: not shown	binds
RhD294.119E10 (Fab, V domains shown, Tested as Fab in E. coli periplasmic extract (VH on human gamma 1 CH1, vector Em351)) VH: QVQLVESGGGVVQPGRSLRLSCAASGFSFSNYGMHWVRQAPGKGLEWVAVISYDGSEKYYADSVKGRFTISRDNSKKTLYLQMNSLRAEDTAMYYCKNKVGATRRAVVAVDIWGQGTMVTVSS VL: EIVLTQSPGTLSLSPRERATLSCRANQYVNSNHLAWYQQKPGQAPRLLLYGASRRATGIPDRFSGSGTGTDFTLIISRLEPEDFAVYFCQLYDHSRPMYTFGQGTKLEIKR	binds
RhD159.119B09 (Fab, V domains shown, Tested as Fab in E. coli periplasmic extract (VH on human gamma 1 CH1, vector Em351)) VH: EVQLVETGGGLVQPGGSLRLSCAASGFSFRSYDMNWVRQAPGKGLEWVSYISGRGSTTYYADSVKGRFTISRDNAKNSLYLQMNSLRAEDTAVYYCARDLYGDYDPKSYYYYAMDVWGHGTTVTVSS VL: EIVMTQSPGTLSLSPGERATLSCRASHTVSSGYLAWYQQKPGQAPRLLIYGASNRATGVPDRFGGSGSGTDFTLTISRLEPEDSAVYFCQQYGTSPGVTFGQGTRLEIER	binds
RhD295.119B11 (Fab, V domains shown, Tested as Fab in E. coli periplasmic extract (VH on human gamma 1 CH1, vector Em351)) VH: QVQLVESGGGLVQPGGSLRLSCVGSGFTFRSFDMNWVRQAPGKGLEWISYINSRGNTRYYVDSVKGRFTISRDNAKNSLYLQMNSLRAEDTAVYYCARDLYGDYDPKSYYYYGMDVWGQGTMVTVSS VL: EIVLTQSPGTLSLSPGERATLSCRASQSFSSGYLAWYQQKPGQAPRLLIYGASNRATGIPDRFSGSGSGTDFTLTISRLEPEDFAVYYCQHYGSSPPITFGQGTRLEIKR	binds
